Molecular target: SARS-CoV-2 (2019-nCoV) Spike RBD-His Recombinant Protein, Biotinylated (SARS-CoV-2, UniProt P0DTC2, biotin (biotinylated; site not stated))
Test: SPR

GIGDPVTCLKSGAICHPVFCPRRYKQIGTCGLPGTKCCKKP [Human beta defensin 2 (hBD-2), recombinant]
Kd: 1800 ± 1100 nM
